T1: APG30127-L32-nAPG07433.1 (synthetic)
T1 chain: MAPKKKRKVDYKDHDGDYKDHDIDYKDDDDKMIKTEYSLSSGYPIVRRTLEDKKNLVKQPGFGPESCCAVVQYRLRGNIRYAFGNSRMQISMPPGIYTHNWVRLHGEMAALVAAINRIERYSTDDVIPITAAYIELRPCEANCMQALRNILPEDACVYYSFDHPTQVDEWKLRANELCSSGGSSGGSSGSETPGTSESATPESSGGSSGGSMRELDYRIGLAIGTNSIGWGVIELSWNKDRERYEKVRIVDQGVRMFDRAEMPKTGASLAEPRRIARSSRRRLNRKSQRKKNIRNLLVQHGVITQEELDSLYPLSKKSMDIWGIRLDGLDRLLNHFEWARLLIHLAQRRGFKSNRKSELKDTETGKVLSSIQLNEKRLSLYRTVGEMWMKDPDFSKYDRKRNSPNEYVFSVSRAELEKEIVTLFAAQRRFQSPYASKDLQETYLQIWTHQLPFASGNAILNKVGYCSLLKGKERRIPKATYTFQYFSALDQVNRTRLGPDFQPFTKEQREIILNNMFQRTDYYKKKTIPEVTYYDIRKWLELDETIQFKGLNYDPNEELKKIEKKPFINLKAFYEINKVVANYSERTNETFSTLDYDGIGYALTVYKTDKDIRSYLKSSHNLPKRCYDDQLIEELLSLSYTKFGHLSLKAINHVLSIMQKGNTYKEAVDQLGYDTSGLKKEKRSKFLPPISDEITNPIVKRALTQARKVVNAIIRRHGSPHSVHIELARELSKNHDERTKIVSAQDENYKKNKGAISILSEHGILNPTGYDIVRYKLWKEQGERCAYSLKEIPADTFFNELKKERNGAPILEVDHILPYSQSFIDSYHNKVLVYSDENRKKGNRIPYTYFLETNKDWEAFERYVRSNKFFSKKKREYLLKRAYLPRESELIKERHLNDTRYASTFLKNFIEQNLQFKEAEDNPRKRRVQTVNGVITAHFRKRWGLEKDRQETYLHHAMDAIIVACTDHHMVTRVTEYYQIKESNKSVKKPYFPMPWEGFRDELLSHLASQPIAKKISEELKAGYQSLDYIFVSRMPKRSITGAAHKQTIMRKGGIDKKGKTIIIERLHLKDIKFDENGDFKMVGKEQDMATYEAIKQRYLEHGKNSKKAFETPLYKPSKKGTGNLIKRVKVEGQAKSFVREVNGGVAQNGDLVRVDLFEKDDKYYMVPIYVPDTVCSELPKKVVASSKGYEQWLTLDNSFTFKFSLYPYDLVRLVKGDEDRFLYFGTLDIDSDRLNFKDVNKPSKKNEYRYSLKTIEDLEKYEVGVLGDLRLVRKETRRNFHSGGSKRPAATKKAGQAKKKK

T2: APG30129-L32-nAPG07433.1 (synthetic)
T2 chain: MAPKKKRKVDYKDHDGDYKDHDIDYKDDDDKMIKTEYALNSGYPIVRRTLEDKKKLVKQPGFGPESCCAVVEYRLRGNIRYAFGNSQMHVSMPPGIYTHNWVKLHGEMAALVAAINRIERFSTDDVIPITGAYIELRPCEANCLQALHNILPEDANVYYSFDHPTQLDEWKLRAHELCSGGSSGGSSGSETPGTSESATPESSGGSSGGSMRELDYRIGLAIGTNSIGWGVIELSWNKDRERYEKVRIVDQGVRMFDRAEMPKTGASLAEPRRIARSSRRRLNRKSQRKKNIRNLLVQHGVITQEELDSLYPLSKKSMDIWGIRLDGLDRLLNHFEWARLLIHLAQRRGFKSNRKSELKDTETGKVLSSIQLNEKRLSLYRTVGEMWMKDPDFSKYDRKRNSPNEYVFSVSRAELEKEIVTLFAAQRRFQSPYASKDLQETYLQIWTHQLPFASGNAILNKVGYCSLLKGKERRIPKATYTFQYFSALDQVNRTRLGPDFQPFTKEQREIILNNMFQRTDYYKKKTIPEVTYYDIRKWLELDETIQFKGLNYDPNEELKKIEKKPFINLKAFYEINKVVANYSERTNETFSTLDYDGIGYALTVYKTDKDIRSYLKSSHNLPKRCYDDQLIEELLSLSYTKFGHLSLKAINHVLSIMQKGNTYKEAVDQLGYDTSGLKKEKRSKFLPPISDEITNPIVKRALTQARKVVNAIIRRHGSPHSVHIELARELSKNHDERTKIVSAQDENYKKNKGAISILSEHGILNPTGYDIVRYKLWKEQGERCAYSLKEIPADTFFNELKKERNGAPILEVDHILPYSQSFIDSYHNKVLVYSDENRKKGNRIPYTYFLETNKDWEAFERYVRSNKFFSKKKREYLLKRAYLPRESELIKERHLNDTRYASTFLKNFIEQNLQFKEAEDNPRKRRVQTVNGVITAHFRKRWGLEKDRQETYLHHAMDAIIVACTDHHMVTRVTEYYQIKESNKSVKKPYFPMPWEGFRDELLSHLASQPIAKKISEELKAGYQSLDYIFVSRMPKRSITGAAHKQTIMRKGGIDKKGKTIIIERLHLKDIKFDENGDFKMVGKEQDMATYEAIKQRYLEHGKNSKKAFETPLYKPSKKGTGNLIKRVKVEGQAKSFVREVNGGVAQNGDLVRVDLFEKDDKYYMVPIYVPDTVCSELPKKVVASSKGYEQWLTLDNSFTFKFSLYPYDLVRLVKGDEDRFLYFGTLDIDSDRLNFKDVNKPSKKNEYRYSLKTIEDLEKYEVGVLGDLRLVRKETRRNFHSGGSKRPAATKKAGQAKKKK


What was measured:
Details in all cases: tags: SV40 NLS, 3xFLAG N-term; nucleoplasmin NLS C-term
[1] = target: nAPG07433.1-APG05840 (synthetic); assay: cell_activity; HEK293FT; C>G predominant; PAM SEQ 152
[2] = target: T1, APG30127-L32-nAPG07433.1; assay: cell_activity; HEK293FT; PAM SEQ 152
Experimental: (§1) 500 ng of plasmid comprising an expression cassette comprising a coding sequence for each fusion protein shown in Table 3 and 500 ng of plasmid comprising an expression cassette encoding an sgRNA shown in Table 4 were co-transfected into HEK293FT cells at 75-90% confluency in 24-well plates using Lipofectamine 2000 reagent (Life Technologies). Cells were then incubated at […] for 72 h. Following incubation, genomic DNA was then extracted using NucleoSpin 96 Tissue (Macherey-Nagel) following the manufacturer's protocol. The genomic region flanking the targeted genomic site was PCR amplified using the primers in Table 4 and products were purified using ZR-96 DNA Clean and Concentrator (Zymo Research) following the manufacturer's protocol. The purified PCR products were then sent for Next Generation Sequencing on Illumina MiSeq (2×250). Results were analyzed for INDEL formation or introduction of % specific cytosine mutations.
(§2) The position of each nucleotide in the target sequence was determined. “C17” indicates, for example, a cytosine at position 17 of the target sequence. The position of each nucleotide in the target sequence was determined by numbering the first nucleotide in the target sequence closest to the PAM as position 1, and the position number increases in the 3′ direction away from the PAM sequence.

[3] = target: T2, APG30129-L32-nAPG07433.1; assay: cell_activity; HEK293FT; PAM SEQ 152
Experimental: as §1, §2

Binder	activity [1]	activity [2]	activity [3]
SGN000928 sgRNA ; SGN000928 target (ssRNA ; dsDNA) RNA: GCUUCUACUCUUGGCUUACAACCCAGUCAUAGUUCCAUGAAAGCCAAAAGUGGCUUUGAUGUUUCUAUGAUAAGGGUUUCGGCCCGUGGCGUCGGGGAUCGCCUGCCCAUUCCGAUGGGCUUCUCCCCAUUUAUU DNA 1: GCTTCTACTCTTGGCTTACAACCCA DNA 2: TGGGTTGTAAGCCAAGAGTAGAAGC	20.9 % mutated reads	–	–
SGN000186 sgRNA ; SGN000186 target (ssRNA ; dsDNA) RNA: GGACAGUGCGCAUCUCCCUGGUCAUAGUUCCAUUAAAGCCAAAAGUGGCUUUGAUGUUUCUAUGAUAAGGGUUUCGACCCGUGGCGUCGGGGAUCGCCUGCCCAUUGAAAUGGGCUUCUCCCCAUUUAUU DNA 1: GGACAGTGCGCATCTCCCTG DNA 2: CAGGGAGATGCGCACTGTCC	–	14.3 % mutated reads	11.4 % mutated reads

From patent US20240301385, “DNA MODIFYING ENZYMES AND ACTIVE FRAGMENTS AND VARIANTS THEREOF AND METHODS OF USE” (LIFEEDIT THERAPEUTICS, INC., published 2024)
